Measured values reported in the supplement of paper PMC12042874.
± gives the uncertainty stated by the source.

Assay: amyloid nucleation score (Sup35N fusion, yeast selection) (log enrichment); library NNK1; higher = more nucleation; inactive = no reads after selection
How it was run: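 In psi-negative yeast, Sup35N fusions carrying peptides of 20 random codons were induced with 100 μM copper sulfate for 24 hours. The cells then grew 7 days at 30°C on medium lacking adenine and uracil, and plasmid inserts from input and output were Illumina-sequenced, excluding sequences with under 100 input reads. Nucleation score is the DiMSum log enrichment of output over input reads, centred on the mode score of non-aggregating sequences.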
IFLPYI gave an amyloid nucleation score of -0.383 ± 1.4. TAYAFNDCEFEPVWSRIVGN showed an amyloid nucleation score of -0.412 ± 0.48. For GYHSFGLVHEGETGK, the amyloid nucleation score was “inactive”. NKQETSKWLWECGDCSRYLY showed an amyloid nucleation score of 1.18 ± 0.41. In the case of KKTGVVGVYK, the amyloid nucleation score is reported as -1.26 ± 1.1. Work on NPRPH yielded an amyloid nucleation score of -0.601 ± 0.62. YLILLWWTNCRARAKERVDR gave an amyloid nucleation score of -0.155 ± 1.1. In the case of RWPVFNSCLSSSPRRAEYRY, the amyloid nucleation score is reported as 0.616 ± 0.59. In the case of CLSSSH, the amyloid nucleation score is reported as -0.322 ± 0.38. LIPSRFMVNGDTIL showed an amyloid nucleation score of 0.971 ± 0.28. LLNGEQLQSSDNIRLWIAFR gave an amyloid nucleation score of 0.151 ± 0.41. With WHSIADLNLVDYEICVNFFY the amyloid nucleation score was -0.75 ± 1.5. Substance SAMAWIPFTISPRFEFRTCN has an amyloid nucleation score of 5.16 ± 0.061. WILPNNRMVFVLYTEQWWTF showed an amyloid nucleation score of 2.33 ± 0.11. With YSNFFQHRTWMIDCSFPTGL the amyloid nucleation score was 0.147 ± 0.37. Substance LTQLYLVTSSTWVNYSYLKW has an amyloid nucleation score of 0.742 ± 0.58. TGCRHFLQVCSVHRRRGSVC gave an amyloid nucleation score of 0.022 ± 0.78. DKDDEIY showed an amyloid nucleation score of 1.42 ± 0.76. For PWYDRPRVSYSAFLVWIQLH, the amyloid nucleation score was -0.417 ± 0.93. For CWCSANALMCRGKLSAWNRH, the amyloid nucleation score was “inactive”. Work on TRTLLNVHCCPSVW yielded an amyloid nucleation score of 6.614 ± 0.054. In the case of VQKKRLDGLVKRGLYIRAIG, the amyloid nucleation score is reported as 1.2 ± 0.69. With LNNLVFVLLV the amyloid nucleation score was 3.37 ± 0.09. KVYYRVKMHYSLAGEARTDT gave an amyloid nucleation score of 0.621 ± 0.84. In the case of RIFYFPSLRRKGDYNWRMVV, the amyloid nucleation score is reported as 0.27 ± 0.39. With FLWSIICSYSQLY the amyloid nucleation score was -0.201 ± 0.35. Substance SQIADHIRSPRNL has an amyloid nucleation score of -1.37 ± 2.1. Substance FCYSTI has an amyloid nucleation score of 0.487 ± 0.81. TIDVCDSHLMAYTVDWNCVW gave an amyloid nucleation score of 0.505 ± 0.62. TYPMATIIVALG gave an amyloid nucleation score of -0.681 ± 0.38. For DLLQLYSDGTRGYVFFLLMK, the amyloid nucleation score was “inactive”. In the case of LDRAVHPGVVSPWSQVTRTM, the amyloid nucleation score is reported as 0.749 ± 0.38. FLDMVVMGCEFRPSGGFSSV showed an amyloid nucleation score of -0.156 ± 0.38. For KVAHCCSDMYSWRVGKMMSM, the amyloid nucleation score was 0.024 ± 0.79. YLVTGVGYGGCNIRLWE showed an amyloid nucleation score of 0.355 ± 0.83. MCFLLSYLRWLDYYSYVVVC gave an amyloid nucleation score of 0.962 ± 0.42. With IPTFSKIGKLFYVCGAEFSD the amyloid nucleation score was -0.355 ± 0.88. Substance MAVFSIDRVVPVVTGGCIAE has an amyloid nucleation score of 0.035 ± 0.46. In the case of ESIVRFKSSRSDKI, the amyloid nucleation score is reported as 2.86 ± 0.075. Work on KWGHSENVVVYFDGAFSWVS yielded an amyloid nucleation score of 0.16 ± 0.6. KLMVWITFGSWSRVGHWKGI showed an amyloid nucleation score of -0.387 ± 1.2. ASRMFMSFLYYSMLLWLLNV showed an amyloid nucleation score of -1.66 ± 0.85. SCVLESIQEFWS showed an amyloid nucleation score of -0.3 ± 0.24. For YGSNWLEGVGLYRGVARQSW, the amyloid nucleation score was -0.781 ± 0.43. For ASFVSLVSAPESFNGFAVQN, the amyloid nucleation score was -0.006 ± 0.48. VLLCNFRSRVWRYRCFKAFS showed an amyloid nucleation score of 0.93 ± 0.19. In the case of TTLVQCQFIPTFCVIPMWLL, the amyloid nucleation score is reported as 5.58 ± 0.058. WLNRMFFGDLCDMAIWKMCM showed an amyloid nucleation score of -0.217 ± 0.72. Substance SCYMHVR has an amyloid nucleation score of 0.372 ± 0.52. DNGGFDPWWCWNRLRWWRGG showed an amyloid nucleation score of 0.248 ± 0.38. Substance EVDRWGICCPYW has an amyloid nucleation score of 1.88 ± 0.26. Substance DGRRFFYQRGDICLSMLHNH has an amyloid nucleation score of -1.58 ± 1.7. LYSDPKVCHN showed an amyloid nucleation score of 4.74 ± 0.065. For WRLLCSITMDWF, the amyloid nucleation score was -0.15 ± 0.22. Substance VAKVLKSSCGRYG has an amyloid nucleation score of -0.573 ± 0.44. With GGSFYKAILFNRKCVYVGSR the amyloid nucleation score was 0.942 ± 0.51. Work on LISYRYFFCHRECVLVIGSN yielded an amyloid nucleation score of 0.327 ± 0.6. PTDMPGHVTMSRGSCLEWVL showed an amyloid nucleation score of 0.355 ± 0.36. Substance DCPFKLPFSTRRR has an amyloid nucleation score of 0.05 ± 0.73. Work on LLDVLMDGRFSFVQRYCRAD yielded an amyloid nucleation score of 1.05 ± 0.2. SFTNDSSRSWRHTRLGSCCE gave an amyloid nucleation score of 1.48 ± 0.63. VDKKRAISCKSFRLYGRFSL showed an amyloid nucleation score of -0.647 ± 0.32. For CAKGCCD, the amyloid nucleation score was -0.344 ± 0.72. HTVKAK gave an amyloid nucleation score of -2.11 ± 1.1. In the case of GLLLSCSWNIDVSA, the amyloid nucleation score is reported as 0.235 ± 0.56. In the case of SCMRSKWKNTWLKYRYVNCI, the amyloid nucleation score is reported as -0.493 ± 0.62. MGVFRLNHSQTLRTGQSVEF showed an amyloid nucleation score of -1.18 ± 2.1. TSKDEFKFEYRNEKVNQ gave an amyloid nucleation score of 1.75 ± 0.21. Substance RQFSSTRFCREHRITGMQLG has an amyloid nucleation score of 0.369 ± 0.79. TLFCSGSNAKAGCSEHYYFC gave an amyloid nucleation score of 3.04 ± 0.16. HLPTKLPSRIRYRCYDFHVI showed an amyloid nucleation score of -0.546 ± 0.97. In the case of VASTTSGRHWSLRGHKRFGR, the amyloid nucleation score is reported as 1.28 ± 0.72. YYPNPMQPW gave an amyloid nucleation score of -0.526 ± 0.47. In the case of DTLEVTFGYYDCYGMYKTIT, the amyloid nucleation score is reported as -1.18 ± 1.7. For YSNLYFSLNNGNPVLKGYNG, the amyloid nucleation score was -0.17 ± 0.65. SVNFRYPWCFTVGGMTVLLQ showed an amyloid nucleation score of 0.007 ± 0.73. LICLGRPTSNTELGMNDINF gave an amyloid nucleation score of -0.349 ± 0.84. Substance DFIVS has an amyloid nucleation score of -0.198 ± 0.3. Substance SLTVLCKVFFSCNQAGLLHG has an amyloid nucleation score of 0.17 ± 0.5. In the case of SVMNGVGPQWLVLTYLPVSR, the amyloid nucleation score is reported as -0.38 ± 1.5. In the case of LVGSKSGVTRQRMALRWGGF, the amyloid nucleation score is reported as -0.285 ± 1.4. Substance VNYISHTQMKTR has an amyloid nucleation score of 0.913 ± 0.41. Substance PRLLLGAHQSYLGACSAGYM has an amyloid nucleation score of 1.06 ± 0.71. In the case of NVTDAI, the amyloid nucleation score is reported as “inactive”. For SRVFRLVFKPSYGSLTRRCR, the amyloid nucleation score was -0.904 ± 1.9.
